This is an account of results in patent publication US20220228157A1, “GENE EDITING IN DIVERSE BACTERIA” (priority 2019, published 2022).

Experiment [1] deals with EcSSBΔ9 (EcSSB with a 9-amino-acid C-terminal deletion) (E. coli) (UniProt P0AGE0). The experiment is described as follows: cell-based or functional assay.
Experiment [2] concerns the target LlSSB C7:EcSSB (L. lactis SSB with its last 7 C-terminal residues replaced by those of EcSSB) (L. lactis) (UniProt Q9CDM9). Nature of the experiment: cell-based or functional assay.
Experiment [3] concerns the target LlSSB C8:EcSSB (L. lactis SSB with its last 8 C-terminal residues replaced by those of EcSSB) (L. lactis) (UniProt Q9CDM9). Nature of the experiment: cell-based or functional assay.
Experiment [4] addresses L. lactis single-stranded binding protein (LlSSB) (L. lactis) (UniProt Q9CDM9). The experiment is described as follows: cell-based or functional assay.
Experiment [5] addresses PaSSB (Pseudomonas aeruginosa single-stranded binding protein) (Pseudomonas aeruginosa) (UniProt P40947). Nature of the experiment: cell-based or functional assay.
For experiment [6], the target named is E. coli single-stranded binding protein (EcSSB) (E. coli) (UniProt P0AGE0). Nature of the experiment: cell-based or functional assay. Conditions: scale: fold improved over the RecT protein alone.
Experiment [7] deals with Agrobacterium tumefaciens. Nature of the experiment: Oligo-recombineering efficiency of SSAP/SSB library members. Format: cell-based. Conditions: A. tumefaciens, after two rounds of selection. As for the experimental part: A library of the most broadly-acting three (3) SSAPs and twenty five (25) SSBs was cloned into an Agrobacterium tumefaciens (A. tumefaciens) vector (75-member library). The library was selected for efficient genome editing, and oligo-recombineering. Efficiency was measured from the two most frequent members of the library after two rounds of selection. Editing efficiency of close to 1% was measured in SSAP SEQ ID NO: 143/SSB SEQ ID NO: 310. […] A. tumefaciens is quite distantly related to E. coli, L. lactis, and M. smegmatis (FIG. 7).

In experiment [8] the test system is Agrobacterium tumefaciens. Nature of the experiment: SSAP candidate enrichment. Format: cell-based. As for the experimental part:
The editing efficiency of SSAP candidates was also tested in Agrobacterium tumefaciens and in Staphylococcus aureus using the methods described above.

Experiment [9] relates to E. coli. Nature of the experiment: Editing efficiency by NGS, non-coding mismatch at a non-essential gene. As to conditions: versus Redβ expressed off wild-type codons. The experiment is classed as cell-based, Escherichia coli. As for the experimental part: Top-performing SSAPs and SSAP/SSB pairs from experiments in E. coli, L. lactis, and M. smegmatis are shown in FIG. 2A, FIG. 2B and FIG. 2C, respectively. Bars in red are the proteins that had previously been reported in the literature. The proteins listed were found after ten rounds of selection for protein variants that enabled the introduction of an oligonucleotide that conferred a genomic edit that provided antibiotic resistance. Unbiased editing efficiency was tested in each case by introducing a non-coding base change at a non-essential gene and measuring the frequency of incorporation via next generation sequencing.
Their recombineering efficiency was tested against Redβ expressed off of its wild-type codons on the same plasmid system used for the SEER selections. […]
The efficiency of each SSAP or SSAP/SSB pair was measured by expressing them off of their host-specific plasmid in the naïve parent strain and running a recombineering cycle with an oligo that confers a 4-nucleotide non-coding mismatch in a non-essential gene. The allele was then amplified by PCR and editing efficiency was measured by next-generation sequencing.
To measure single locus editing, a recombineering cycle was run with an oligo that confers a single base pair non-coding mismatch in a non-essential gene. The allele was then amplified by PCR and editing efficiency was measured by NGS as described above. […]

The subject of experiment [10] is E. coli. The experiment is described as follows: Fifteen cycles of MAGE with pool of 15 oligos, editing efficiency by NGS. The experiment is classed as cell-based, Escherichia coli. As to conditions: 15 separate mutations, one week. The protocol: E. coli populations expressing either an efficient SSAP (SEQ ID NO: 157), an efficient SSAP/SSB pair (SEQ ID NO: 157/SEQ ID NO: 384), or the widely-used Redβ were taken through fifteen cycles of MAGE and transformed each cycle with a 10 μM pool comprising 15 unique oligos. Editing efficiency at each targeted locus was measured by NGS and averaged (FIG. 3).

“Redβ single-stranded annealing protein (SSAP) from Enterobacteria phage λ (from UniProt P03698 1-261)” displayed a genome editing efficiency in L. lactis (fold lower than Redβ with EcSSB) in [1] of 44. The editing rate in L. lactis (fold of Redβ with EcSSB) in [2] was 5.9. This molecule displayed an editing rate in L. lactis (fold of Redβ with EcSSB) in experiment [3] of 2.6. Further, the genome editing efficiency in L. lactis (fold less than Redβ with EcSSB) in experiment [4] is 38.5. In experiment [5], this molecule displayed an editing efficiency in C. crescentus (fold over Redβ alone) of 15; an editing efficiency in C. crescentus after expression optimization and evasion of mismatch repair (fold higher than Redβ alone) of 112; an editing efficiency in C. crescentus after expression optimization and evasion of mismatch repair (fold over the background level) of 873. In experiment [6], this molecule came in with an editing efficiency in L. lactis, pair against the RecT protein alone of 483.
On to MspRecT, for which, in [4], the genome editing efficiency in L. lactis (fold lower than the cognate pair) was found to be 33.
PapRecT displayed a genome editing efficiency in L. lactis (fold less than the cognate pair) in experiment [4] of 135. The molecule also displayed an editing efficiency in L. lactis, pair against the RecT protein alone in experiment [5] (scale: fold improved over the RecT protein alone) of 1170.

B1: SSAP SEQ ID NO: 143/SSB SEQ ID NO: 310: co-expressed SSAP/SSB pair (protein, listed as Helicobacter pullorum)
chain 1: MAENEKQALLQEENKSENVVSTVKRTALATNPFSDTDQFNNIFKMAQLISQSDMIPATYKGKPMNCVIALEQANRMGVSPLMVMQNLYVVKGVPSWSGQGCMMIIQGCGKFRDVDYVYSGEKGTDSRSCKVVATRISDGKRIEGTEITMQMVKSEGWISNTKWKNMPEQMLGYRAATFFARMYCPNELNGFATEGEAEDMNHKPQRIEAINVLGDTAHE
chain 2: MFNKVILVGNLTRDVELRYLPSGAALARLNLATNRRYKKQDGTQAEEVCFIDVNLFGRTAEVANQYLKKGSQVLIEGRLVLESWTDNTGAKRTKHSITAESMQMLGQRQSTQEENHDYGAGDYNNYQEYEKPAYTASAAPKAQPVQKEPELPVIDINDDEIPF
modifications: Clostridium sp FS41
notes: co-expressed SSAP/SSB pair
Turning to B1, the Editing efficiency in experiment [7] is ~1%.

B2: PF074: SSAP candidate (protein, listed as Rhizobium loti)
chain: MMNAITTYTHSPRQLALIQKTVAKDCNTDEFNLFVEVARAKGLDPFLGQIIPMIFSKGDSNKRKMTIIISRDGQRVIAQRCGDYRPASKPPSYEFDAELKSETNPQGIVSATVYLWKQDAKTAAWFEVAGQSYWDEFAPISYPYDAYKMVDTGETWEDSGKPKKKRVLRDGATPQLDDSGNWCRMPRLMIAKCAEMQALRAGWPEQFTGLYDEAEMDRAKVLEMAASEIVAHEQEENRLRLVAGNDAITMSWGDGWALENVPAGEFMDRCLAFIRESDHQTVVKWNSANRAGLQLFWAKHPGDALELKKAIEKASRAPVEIDHIADAARREIAQHPVSAG
In the case of B2, the “Editing efficiency (enrichment) relative to other SSAP candidates” value in experiment [8] is “increase in editing efficiency”.

B3: codon-optimized version of Redβ: Redβ expressed from the codon-optimized gene included in Broad SSAP Library (protein, UniProt P03698 1-261, looked up)
Recombination protein bet: MSTALATLAGKLAERVGMDSVDPQELITTLRQTAFKGDASDAQFIALLIVANQYGLNPWTKEIYAFPDKQNGIVPVVGVDGWSRIINENQQFDGMDFEQDNESCTCRIYRKDRNHPICVTEWMDECRREPFKTREGREITGPWQSHPKRMLRHKAMIQCARLAFGFAGIYDKDEAERIVENTAYTAERQPERDITPVNDETMQEINTLLIALDKTWDDDLLPLCSQIFRRDIRASSELTQAEAVKALGFLKQKAAEQKVAA
modifications: expressed from codon-optimized gene
notes: Redβ expressed from the codon-optimized gene included in Broad SSAP Library
For the molecule B3, the “Effect of codon usage on editing efficiency” value in the experiment with E. coli [9] was “significantly decreased efficiency”.

B4: SEQ ID NO: 157/SEQ ID NO: 384: efficient SSAP/SSB pair co-expressed in E. coli (protein, listed as Clostridium sordellii)
chain 1: MNQIVKFTDDSGLAVQVTPDDVRRYICENATEKEVGLFLQLCQTQRLNPFVKDAYLVKYGGAPASMITSYQVFNRRACRDANYDGIKSGVVVLRDGDVVHKRGAACYKKAGEELIGGWAEVRFKDGRETAYAEVALDDYSTGKSNWAKMPGVMIEKCAKAAAWRLAFPDTFQGMYAAEEMDQAQQPEQVRAQAEQPVDLQPIRELFKPYCEHFGITPAEGMTAVCGAVGAEGMHSMTEQQARRARAWMEEEMAAPAVEAEYEVVDEGEVF
chain 2: MNHVVLVGRLTKDPELRYIPGTGTAVATFTIAIDRDYAKKDGSRETDFIPVEVMGKSAEFCANYISKGRLVALQGSIRVDNYQNQSGERRTFTKVSARNIQALDSNKNRSDSPYPSQNQSFEPSFEPSFEPTGLDPQGFQAIDDDDIPF
modifications: Collinsella stercoris DSM 13279
notes: efficient SSAP/SSB pair co-expressed in E. coli
Regarding B4, the “Editing efficiency, averaged over targeted loci” value with E. coli [10] is listed as ~100%.

B5: N003: SSAP candidate (protein, listed as Escherichia coli)
chain: MTKQPPIAKADLQKTQGNRAPAAVKNSDVISFINQPSMKEQLAAALPRHMTAERMIRIATTEIRKVPALGNCDTMSFVSAIVQCSQLGLEPGSALGHAYLLPFGNKNEKSGKKNVQLIIGYRGMIDLARRSGQIASLSARVVREGDEFSFEFGLDEKLIHRPGENEDAPVTHVYAVARLKDGGTQFEVMTRKQIELVRSLSKAGNNGPWVTHWEEMAKKTAIRRLFKYLPVSIEIQRAVSMDEKEPLTIDPADSSVLTGEYSVIDNSEE
For B5, the “Editing efficiency (enrichment) relative to other SSAP candidates” value in experiment [8] is reported as “increase in editing efficiency”.
